# Laboratory results: publication PMC6576158
# Target: mouse Nicastrin I241C mutant (mouse) (UniProt P57716)
# Test: cross-linking
# Sequence of UniProt P57716 (P57716 28-708 I241C): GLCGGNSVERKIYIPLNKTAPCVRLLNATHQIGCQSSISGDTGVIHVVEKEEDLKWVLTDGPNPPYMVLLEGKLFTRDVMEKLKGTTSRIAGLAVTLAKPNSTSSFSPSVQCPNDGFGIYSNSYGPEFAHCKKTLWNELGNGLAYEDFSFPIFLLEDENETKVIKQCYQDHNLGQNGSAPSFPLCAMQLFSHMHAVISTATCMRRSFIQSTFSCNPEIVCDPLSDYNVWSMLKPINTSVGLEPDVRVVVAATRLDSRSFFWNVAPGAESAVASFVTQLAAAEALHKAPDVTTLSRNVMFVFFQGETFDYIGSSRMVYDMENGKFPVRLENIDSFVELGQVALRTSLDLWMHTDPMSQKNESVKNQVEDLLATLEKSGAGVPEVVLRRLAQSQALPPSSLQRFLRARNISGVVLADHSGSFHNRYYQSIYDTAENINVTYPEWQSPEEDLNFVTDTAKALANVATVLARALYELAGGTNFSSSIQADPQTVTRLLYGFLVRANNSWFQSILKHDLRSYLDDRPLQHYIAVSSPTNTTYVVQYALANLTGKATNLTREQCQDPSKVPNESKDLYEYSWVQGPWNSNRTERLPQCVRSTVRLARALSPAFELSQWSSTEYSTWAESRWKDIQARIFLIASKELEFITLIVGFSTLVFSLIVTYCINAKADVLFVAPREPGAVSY
substance,measurement,value
APPC99‐3xFLAG‐K28C (domain or fragment),percent of the substrate cross-linked to NCT (disulfide bond),15.4%
